Series [1] concerns the target T1, tsks fused to the GAL 4 activation domain (AD).
T1 chain: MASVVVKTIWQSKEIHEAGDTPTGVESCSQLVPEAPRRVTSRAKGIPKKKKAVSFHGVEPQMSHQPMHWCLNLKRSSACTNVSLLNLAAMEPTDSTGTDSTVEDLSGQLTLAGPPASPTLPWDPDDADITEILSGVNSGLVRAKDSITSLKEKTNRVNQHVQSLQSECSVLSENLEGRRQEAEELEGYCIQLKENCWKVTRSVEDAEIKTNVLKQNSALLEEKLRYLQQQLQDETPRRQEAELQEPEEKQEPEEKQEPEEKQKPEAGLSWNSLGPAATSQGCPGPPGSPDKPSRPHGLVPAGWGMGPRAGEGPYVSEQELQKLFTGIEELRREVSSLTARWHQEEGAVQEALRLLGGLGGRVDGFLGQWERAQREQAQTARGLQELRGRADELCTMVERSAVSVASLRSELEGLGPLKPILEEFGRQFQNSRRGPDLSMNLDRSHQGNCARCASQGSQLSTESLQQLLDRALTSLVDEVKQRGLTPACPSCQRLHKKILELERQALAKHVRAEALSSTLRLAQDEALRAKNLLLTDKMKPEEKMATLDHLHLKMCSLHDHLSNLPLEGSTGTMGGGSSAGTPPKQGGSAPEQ

The target in series [2] is T2, tssk 2 fused to the GAL4 DNA binding domain (DNA-BD) (human, UniProt P04386 1-147 (Saccharomyces cerevisiae entry), limits assumed).
T2 construct: Yeast two-hybrid bait expressed in the AH109 reporter strain; also called bait gene (tssk 2); fusion protein of tssk 2 with the DNA-BD
In words: yeast two-hybrid, growth in His-free medium (AH109). As to the method: In this experiment, a bait gene (tssk 2) was first transformed into the reporter strain as a fusion to the GAL4 DNA binding domain (DNA-BD). A second plasmid that expressed tsks as fusion to the GAL 4 activation domain (AD) was also introduced into the AH109 reporter strain. Western blots were performed to confirm expression of fusion proteins in yeast. […] This interaction was used as a positive control. […] Neither GAL-AD alone nor the fusion proteins between GAL-AD and TSKS or GAL-AD and SV40 Large T antigen had the ability to activate transcription of the His gene.

B1: tssk 2 fused to the GAL4 DNA binding domain (DNA-BD) (protein)
chain: MKLLSSIEQACDICRLKKLKCSKEKPKCAKCLKNNWECRYSPKTKRSPLTRAHLTEVESRLERLEQLFLLIFPREDLDMILKMDSLQDIKALLTGLFVQDNVNKDAVTDRLASVETDMPLTLRQHRISATSSSEESSNKGQRQLTVSMDDATVLRKKGYIVGINLGKGSYAKVKSAYSERLKFNVAVKIIDRKKTPTDFVERFLPREMDILATVNHGSIIKTYEIFETSDGRIYIIMELGVQGDLLEFIKCQGALHEDVARKMFRQLSSAVKYCHDLDIVHRDLKCENLLLDKDFNIKLSDFGFSKRCLRDSNGRIILSKTFCGSAAYAAPEVLQSIPYQPKVYDIWSLGVILYIMVCGSMPYDDSDIRKMLRIQKEHRVDFPRSKNLTCECKDLIYRMLQPDVSQRLHIDEILSHSWLQPPKPKATSSASFKREGEGKYRAECKLDTKTGLRPDHRPDHKLGAKTQHRLLVVPENENRMEDRLAETSRAKDHHISGAEVGKAST
B1: the “transcription of the Histidine (HIS) gene; growth of yeast in His-free medium” value in series [1] is “promote transcription of the Histidine (HIS) gene and allow for the growth of yeast in His-free medium”.

B2: GAL 4 activation domain alone (GAL-AD plasmid) (other, UniProt P04386 768-881, looked up)
chain: ANFNQSGNIADSSLSFTFTNSSNGPNLITTQTNSQALSQPIASSNVHDNFMNNEITASKIDDGNNSKPLSPGWTDQTAYNAFGITTGMFNTTTMDDVYNYLFDDEDTPPNPKKE
notes: Negative-control prey without an insert; also called GAL-AD alone
As for B2, the binding result in series [2] is reported as “no binding”.

Source of the values: patent publication US20050032146A1 (published 2005).
